Here are results for two molecules from patent US20170015742A1 (published 2017).

Experiment [1] has as its target recombinant human VEGF165 (human, UniProt P15692 207-395). As to the kind of experiment: cell-based or functional assay.
In experiment [2] the target is recombinant human PDGF-BB (human, UniProt P01127 82-190). Briefly: cell-based or functional assay.
The next experiment has as its target T1, Human VEGF-A 111 (human, UniProt P15692-10 27-137).
T1 construct: not used because the names differ; also called hVEGF111
T1 sequence (looked up): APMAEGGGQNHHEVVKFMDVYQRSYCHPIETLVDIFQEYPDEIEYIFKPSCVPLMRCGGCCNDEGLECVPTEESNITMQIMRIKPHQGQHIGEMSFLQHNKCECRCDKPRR
Briefly: SPR (Biacore), summary table. Here is the method: (§1) Unreacted moieties on the biosensor surface were blocked with ethanolamine. For kinetic analysis, rate equations derived from the 1:1 Langmuir binding model were fitted simultaneously to multiple antigen injections (using global fit analysis) with the use of Scrubber 2 (BioLogic Software), Biacore Biaevaluation 4.0.1 software or Biacore T100 Evaluation software. Purified antibodies or DVD-Ig molecules were diluted in running buffer for capture across goat anti-human Fc reaction surfaces. Antibodies or DVD-Ig molecules to be captured as a ligand (1 μg/ml) were injected over reaction matrices at a flow rate of 10 μl/minute. During the assay, all measurements were referenced against the capture surface alone (i.e., with no captured antibody or DVD-Ig molecule). […] The equilibrium dissociation constant KD (M) of the reaction between antibodies and the target antigen was then calculated from the kinetic rate constants by the following formula: KD=Koff/Kₒₙ. Binding was recorded as a function of time and kinetic rate constants were calculated. In this assay, on-rates as fast as 10⁶M⁻¹s⁻¹ and off-rates as slow as 10⁻⁶ s⁻¹ could be measured.
On the technique in general: Surface plasmon resonance follows binding to a sensor surface in real time, without labels.

For a further experiment, the target named is T2, Human PDGF-BB, soluble (human, UniProt P01127 82-190).
T2 construct: also called hPDGF-BB; soluble PDGF-BB
As to the kind of experiment: SPR (Biacore), summary table. Here is the method:
as §1

The target in a further experiment is T3, Human VEGF-A 165 (human, UniProt P15692 207-395).
T3 construct: also called hVEGF165
As to the kind of experiment: SPR (Biacore), summary table. Here is the method:
as §1

For another experiment, the target named is T4, Human VEGF-A 121 (human, UniProt P15692 207-395).
T4 construct: also called hVEGF121
T4 sequence: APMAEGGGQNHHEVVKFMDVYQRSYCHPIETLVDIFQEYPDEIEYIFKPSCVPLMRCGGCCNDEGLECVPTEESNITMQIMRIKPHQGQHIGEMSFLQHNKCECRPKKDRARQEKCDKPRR
As to the kind of experiment: SPR (Biacore), summary table. Here is the method: as §1

The target in a further experiment is T5, rat PDGF-B (PR-1645048) (rat, UniProt Q05028 74-182).
T5 construct: Lot 2235300; also called rat PDGF-BB; ratPDGF-BB
Briefly: SPR (Biacore), DVD-Ig captured by anti-human Fc, antigen injected. Here is the method: as §1

T5 sequence (Q05028 74-182 limits assumed): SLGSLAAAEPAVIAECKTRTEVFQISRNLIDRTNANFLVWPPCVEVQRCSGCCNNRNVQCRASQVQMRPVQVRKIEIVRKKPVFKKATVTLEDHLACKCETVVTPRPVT
Sequence of recombinant human PDGF-BB (P01127 82-190 limits assumed): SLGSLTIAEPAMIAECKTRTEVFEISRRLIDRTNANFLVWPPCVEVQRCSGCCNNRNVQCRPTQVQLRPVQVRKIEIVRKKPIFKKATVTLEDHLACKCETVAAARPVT
T2 sequence (P01127 82-190 limits assumed): as above

B1: hu VEGF 9E10.1-GS-hu PDGF 33675 [hu IgG1/k] LALA H435A (PR-1610561) (bispecific antibody)
heavy: EIQLVQSGSELKKPGASVKVSCKASGYTFTNYGMYWVKQAPGQGLEYMGWIDTETGRPTYADDFKGRFVFSLDTSVSTAYLQISSLKAEDTAVYFCARWSGDTTGIRGPWFAYWGQGTLVTVSSGGGGSGGGGSEVTLRESGPALVKPTQTLTLTCTFSGFSLSTYGMGVGWIRQPPGKALEWLANIWWDDDKYYNPSLKNRLTISKDTSKNQVVLTMTNMDPVDTATYYCARIESSGPKYSFDYWGQGTMVTVSSASTKGPSVFPLAPSSKSTSGGTAALGCLVKDYFPEPVTVSWNSGALTSGVHTFPAVLQSSGLYSLSSVVTVPSSSLGTQTYICNVNHKPSNTKVDKKVEPKSCDKTHTCPPCPAPEAAGGPSVFLFPPKPKDTLMISRTPEVTCVVVDVSHEDPEVKFNWYVDGVEVHNAKTKPREEQYNSTYRVVSVLTVLHQDWLNGKEYKCKVSNKALPAPIEKTISKAKGQPREPQVYTLPPSREEMTKNQVSLTCLVKGFYPSDIAVEWESNGQPENNYKTTPPVLDSDGSFFLYSKLTVDKSRWQQGNVFSCSVMHEALHNAYTQKSLSLSPGK
light: DIRMTQSPSSLSASVGDRVTIECLASEDIYSDLAWYQQKPGKSPKLLIYNANGLQNGVPSRFSGSGSGTDYSLTISSLQPEDVATYFCQQYNYFPGTFGQGTKLEIKGGSGGGGSGGEIVLTQSPGTLSLSPGERATLSCRASSGSIWYSFVSWYQQKPGQAPRLLIYADDQRASGIPDRFSGSGSGTDFTLTISRLEPEDFAVYYCQSYGINIDVVFGGGTKVEIKRTVAAPSVFIFPPSDEQLKSGTASVVCLLNNFYPREAKVQWKVDNALQSGNSQESVTEQDSKDSTYSLSSTLTLSKADYEKHKVYACEVTHQGLSSPVTKSFNRGEC
As to B1, the “Potency IC50 (pM), Human VEGF-A, cellular assay” value in experiment [1] was 145 pM. Further, the “Potency IC50 (pM), Human PDGF-BB, cellular assay” value in experiment [2] was 34 pM.

B2: 9E10.1-GS-33675 anti-VEGF/anti-PDGF DVD-Ig molecule (PR-1610561) (bispecific antibody, human IgG1, kappa, L234A L235A)
heavy: EIQLVQSGSELKKPGASVKVSCKASGYTFTNYGMYWVKQAPGQGLEYMGWIDTETGRPTYADDFKGRFVFSLDTSVSTAYLQISSLKAEDTAVYFCARWSGDTTGIRGPWFAYWGQGTLVTVSSGGGGSGGGGSEVTLRESGPALVKPTQTLTLTCTFSGFSLSTYGMGVGWIRQPPGKALEWLANIWWDDDKYYNPSLKNRLTISKDTSKNQVVLTMTNMDPVDTATYYCARIESSGPKYSFDYWGQGTMVTVSSASTKGPSVFPLAPSSKSTSGGTAALGCLVKDYFPEPVTVSWNSGALTSGVHTFPAVLQSSGLYSLSSVVTVPSSSLGTQTYICNVNHKPSNTKVDKKVEPKSCDKTHTCPPCPAPEAAGGPSVFLFPPKPKDTLMISRTPEVTCVVVDVSHEDPEVKFNWYVDGVEVHNAKTKPREEQYNSTYRVVSVLTVLHQDWLNGKEYKCKVSNKALPAPIEKTISKAKGQPREPQVYTLPPSREEMTKNQVSLTCLVKGFYPSDIAVEWESNGQPENNYKTTPPVLDSDGSFFLYSKLTVDKSRWQQGNVFSCSVMHEALHNAYTQKSLSLSPGK
light: DIRMTQSPSSLSASVGDRVTIECLASEDIYSDLAWYQQKPGKSPKLLIYNANGLQNGVPSRFSGSGSGTDYSLTISSLQPEDVATYFCQQYNYFPGTFGQGTKLEIKGGSGGGGSGGEIVLTQSPGTLSLSPGERATLSCRASSGSIWYSFVSWYQQKPGQAPRLLIYADDQRASGIPDRFSGSGSGTDFTLTISRLEPEDFAVYYCQSYGINIDVVFGGGTKVEIKRTVAAPSVFIFPPSDEQLKSGTASVVCLLNNFYPREAKVQWKVDNALQSGNSQESVTEQDSKDSTYSLSSTLTLSKADYEKHKVYACEVTHQGLSSPVTKSFNRGEC
notes: DVD-Ig: outer domain hBEW-9E10.1 (VEGF), inner domain CL-33675 (PDGF), linkers GS-H10 / GS-L10(dR); human IgG1 L234A, L235A, H435A / kappa; Lot 2213329; also called hu VEGF 9E10.1-GS-hu PDGF 33675 [hu IgG1/k]; LALA H435A
Usually Kd stands for the equilibrium constant for the complex coming apart. For orientation: koff means a measure of how fast the partners let go of each other. A high value points to a short-lived complex. By kon is commonly meant a measure of how fast the partners come together. As for B2, the Kd with Human VEGF-A 111 is 0.29 nM; with Human PDGF-BB, soluble, 0.005 nM; with Human VEGF-A 165, 0.065 nM; with Human VEGF-A 121, 0.23 nM; with rat PDGF-B (PR-1645048) it was ≤ 0.0052 nM. Moreover, the koff in the experiment with rat PDGF-B (PR-1645048) is 5.2e-05 s⁻¹. The kon in the experiment with rat PDGF-B (PR-1645048) was ≥ 1e+07 M⁻¹ s⁻¹.
